Test results from paper PMC4857006.

Legend:
[1] = molecular target: T1, mTdp2cat (Mus musculus, UniProt Q9JJX7 118-370); experiment: X-ray crystallography (1.43 A); Mg2+; product complex; Crystals: hTdp2cat-DNA in 90 mM Tris pH 7.0, 27% PEG600, 9% glycerol, 450 mM (NH4)2SO4; mTdp2cat-DNA as in ref 20. Proteolysis buffer not in the material. Trp f
T1 sequence: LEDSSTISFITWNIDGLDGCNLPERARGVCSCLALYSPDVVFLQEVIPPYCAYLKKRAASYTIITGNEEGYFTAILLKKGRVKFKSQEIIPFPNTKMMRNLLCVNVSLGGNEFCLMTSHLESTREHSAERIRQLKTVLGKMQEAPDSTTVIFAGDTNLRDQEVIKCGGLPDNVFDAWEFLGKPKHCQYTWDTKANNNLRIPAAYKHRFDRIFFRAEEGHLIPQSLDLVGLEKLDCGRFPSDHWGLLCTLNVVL

[2] = molecular target: T1, mTdp2cat; experiment: X-ray crystallography (1.55 A); product complex; Crystals: hTdp2cat-DNA in 90 mM Tris pH 7.0, 27% PEG600, 9% glycerol, 450 mM (NH4)2SO4; mTdp2cat-DNA as in ref 20. Proteolysis buffer not in the material. Trp f
[3] = molecular target: T1, mTdp2cat; experiment: X-ray crystallography; Mn2+ soak (5 mM MnCl2); Crystals: hTdp2cat-DNA in 90 mM Tris pH 7.0, 27% PEG600, 9% glycerol, 450 mM (NH4)2SO4; mTdp2cat-DNA as in ref 20. Proteolysis buffer not in the material. Trp f
[4] = molecular target: T2, hTdp2cat (Homo sapiens, UniProt O95551 108-362); experiment: X-ray crystallography (3.2 A); product complex; Crystals: hTdp2cat-DNA in 90 mM Tris pH 7.0, 27% PEG600, 9% glycerol, 450 mM (NH4)2SO4; mTdp2cat-DNA as in ref 20. Proteolysis buffer not in the material. Trp f
T2 sequence: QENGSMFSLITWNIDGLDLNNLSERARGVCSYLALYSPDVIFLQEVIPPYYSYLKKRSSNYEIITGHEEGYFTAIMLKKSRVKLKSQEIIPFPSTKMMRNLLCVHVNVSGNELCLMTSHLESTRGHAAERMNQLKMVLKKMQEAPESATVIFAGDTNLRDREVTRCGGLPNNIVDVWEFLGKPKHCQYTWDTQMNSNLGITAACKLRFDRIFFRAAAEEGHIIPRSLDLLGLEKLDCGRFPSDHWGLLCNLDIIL

[5] = molecular target: T2, hTdp2cat; experiment: limited proteolysis protection (chymotrypsin); with or without Mg2+; Crystals: hTdp2cat-DNA in 90 mM Tris pH 7.0, 27% PEG600, 9% glycerol, 450 mM (NH4)2SO4; mTdp2cat-DNA as in ref 20. Proteolysis buffer not in the material. Trp f
[6] = molecular target: T1, mTdp2cat; experiment: limited proteolysis protection (trypsin, chymotrypsin); Mg2+; more protection than Mg2+ alone; Crystals: hTdp2cat-DNA in 90 mM Tris pH 7.0, 27% PEG600, 9% glycerol, 450 mM (NH4)2SO4; mTdp2cat-DNA as in ref 20. Proteolysis buffer not in the material. Trp f

B1: 5'-P epsilonA DNA (dsDNA)
DNA 1: ACGAATTCG
DNA 2: ACGAATTCG
modifications: 5'-phosphate; 5'-terminal A is 1-N6-ethenoadenine
binding result [1]: binds

B2: 5'-P dA DNA (dsDNA)
DNA 1: ACGAATTCG
DNA 2: ACGAATTCG
modifications: 5'-phosphate
binding result [2]: binds

B3: 5'-P dC DNA (dsDNA)
DNA 1: CCGAATTCG
DNA 2: CCGAATTCG
modifications: 5'-phosphate
binding result [3]: binds | binding result [4]: binds

B4: 12nt DNA (dsDNA)
DNA 1: CATCCGAATTCG
DNA 2: CATCCGAATTCG
modifications: 5'-phosphate
binding result [5]: binds | binding result [6]: binds
